Reference: article PMC4793595

Molecular target: T1, MS2 coat protein (bacteriophage MS2), P03612
T1 chain: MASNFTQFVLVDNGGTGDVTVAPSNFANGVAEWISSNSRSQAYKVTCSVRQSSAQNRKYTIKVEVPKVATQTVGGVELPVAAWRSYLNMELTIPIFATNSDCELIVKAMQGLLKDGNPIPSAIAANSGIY
Experiment: native MS + AUC
Conditions: remark: other sources report otherwise

B1: MS2 coat protein, P03612 1-130 (natural protein)
chain: MASNFTQFVLVDNGGTGDVTVAPSNFANGVAEWISSNSRSQAYKVTCSVRQSSAQNRKYTIKVEVPKVATQTVGGVELPVAAWRSYLNMELTIPIFATNSDCELIVKAMQGLLKDGNPIPSAIAANSGIY
B1 gave a stoichiometry N of 2.
